# Data published in publication PMC7961094, “Development of a colorimetric α-ketoglutarate detection assay for prolyl hydroxylase domain (PHD) proteins” (The Journal of Biological Chemistry, 2021).
# “And” between values parts separate entries of the source, which are not always exact repeats. Equal entries are not always repeated.
# Key:
# [1] = substrate: O=C(O)CCC(=O)C(=O)O; experiment: purified protein, by the assay type; conditions: pH 7.0, 37.0 °C
# [2] = substrate: CC[C@H](C)[C@H](NC(=O)[C@H](Cc1ccc(O)cc1)NC(=O)[C@@H]1CCCN1C(=O)[C@H](C)NC(=O)[C@H](CC(C)C)NC(=O)[C@H](CCSC)NC(=O)[C@H](CCC(=O)O)NC(=O)[C@H](CC(C)C)NC(=O)[C@H](CC(=O)O)NC(=O)[C@H](CC(C)C)NC(=O)[C@@H](N)CC(=O)O)C(=O)N1CCC[C@H]1C(=O)N[C@@H](CCSC)C(=O)N[C@@H](CC(=O)O)C(=O)N[C@@H](CC(=O)O)C(=O)N[C@@H](CC(=O)O)C(=O)N[C@@H](Cc1ccccc1)C(=O)N[C@@H](CCC(N)=O)C(=O)N[C@@H](CC(C)C)C(=O)O; experiment: purified protein, by the assay type; conditions: pH 7.0, 37.0 °C
# [3] = molecular target: MBP-HA-PHD3 (full-length human prolyl hydroxylase domain protein 3) (human) (UniProt Q9H6Z9)
# [4] = molecular target: MBP-HA-PHD3 (full-length human prolyl hydroxylase domain protein 3) (human) (UniProt Q9H6Z9); remark: listed apart in the source
# [5] = other: PHD3, HIF-1α CODD substrate, This work (Table 2)
binder,measurement,setting,value
PHD3 (Homo sapiens) (protein) MPLGHIMRLDLEKIALEYIVPCLHEVGFCYLDNFLGEVVGDCVLERVKQLHCTGALRDGQLAGPRAGVSKRHLRGDQITWIGGNEEGCEAISFLLSLIDRLVLYCGSRLGKYYVKERSKAMVACYPGNGTGYVRHVDNPNGDGRCITCIYYLNKNWDAKLHGGILRIFPEGKSFIADVEPIFDRLLFFWSDRRNPHEVQPSYATRYAMTVWYFDAEERAEAKKKFRNLTRKTESALTED,Km,[1]; [5],43.29 ± 7.295 µM
same,Km,"[1]; other: increasing α-ketoglutarate, 100 μM peptide substrate, 10 μM PHD3",43.3 ± 7.3 µM
same,Km,[2]; [5],24.03 ± 5.964 µM
same,kcat,[2]; [5],0.06062 ± 0.00278 s⁻¹
same,kcat/Km,[2]; [5],2523 ± 466 M⁻¹ s⁻¹
same,Km,"[2]; other: increasing HIF-1α peptide (P564), saturating concentrations of all other reagents, PHD3",24.0 ± 6.0 µM
"DLDLEMLAPYIPMDDDFQL [synthetic HIF-1α peptide encompassing the P564 residue (HIF-1α CODD, 19-mer)]","Km (app; substrate) of PHD3 for the HIF-1α peptide, initial rates of α-ketoglutarate consumption in the 2,4-DNPH α-KG assay (10 μM PHD3, 37 °C, pH 7.0)",[3],0.024 mM
PHD2_181-426 (Homo sapiens) (protein) PNGQTKPLPALKLALEYIVPCMNKHGICVVDDFLGKETGQQIGDEVRALHDTGKFTDGQLVSQKSDSSKDIRGDKITWIEGKEPGCETIGLLMSSMDDLIRHCNGKLGSYKINGRTKAMVACYPGNGTGYVRHVDNPNGDGRCVTCIYYLNKDWDAKVSGGILRIFPEGKAQFADIEPKFDRLLFFWSDRRNPHEVQPAYATRYAITVWYFDADERARAKVKYLTGEKGVRVELNKPSDSVGKDVF,Km,"[1]; other: increasing α-ketoglutarate, 100 μM peptide substrate, 3 μM PHD2",12.0 ± 3.0 µM and 11.970 ± 3.006 µM
same,Km,"[2]; other: increasing HIF-1α peptide (P564), saturating concentrations of all other reagents, 3 μM PHD2",5.2 ± 0.9 µM and 5.192 ± 0.940 µM
ERIGFPLMIKASEGGGGK [synthetic ACC2 peptide encompassing the P450 residue],"Km of PHD3 for the ACC2 P450 peptide, initial rates of α-ketoglutarate consumption in the 2,4-DNPH α-KG assay (10 μM PHD3)",[4],41.2 µM
